In article PMC10299155, “Single-Molecule Analysis of the Improved Variants of the G-Quadruplex Recognition Protein G4P”:

Experiments:
[1] = test system: T1, FJG4P (artificial (motif derived from human FANCJ)); experiment: smTIRFM (koff/kon); conditions: EMSA: DNA annealed in 200 mM Tris pH 7.4, 100 mM KCl, 1 mM EDTA; binding 10 min at 25 C, native PAGE; smTIRFM: 100 pM tethered DNA, 100-5000 pM protein, buffer …
T1 sequence: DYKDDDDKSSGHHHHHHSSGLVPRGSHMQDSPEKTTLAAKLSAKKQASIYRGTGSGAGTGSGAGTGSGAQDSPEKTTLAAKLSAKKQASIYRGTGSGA

[2] = test system: T2, G4P (artificial (RSM derived from human RHAU/DHX36)); experiment: smTIRFM (koff/kon); conditions: EMSA: DNA annealed in 200 mM Tris pH 7.4, 100 mM KCl, 1 mM EDTA; binding 10 min at 25 C, native PAGE; smTIRFM: 100 pM tethered DNA, 100-5000 pM protein, buffer …
T2 sequence: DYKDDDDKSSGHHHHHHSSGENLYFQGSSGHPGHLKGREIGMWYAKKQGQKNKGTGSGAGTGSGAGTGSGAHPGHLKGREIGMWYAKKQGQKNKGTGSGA

[3] = test system: T3, 2FJG4P (artificial (motif derived from human FANCJ)); experiment: smTIRFM (koff/kon); conditions: EMSA: DNA annealed in 200 mM Tris pH 7.4, 100 mM KCl, 1 mM EDTA; binding 10 min at 25 C, native PAGE; smTIRFM: 100 pM tethered DNA, 100-5000 pM protein, buffer …
T3 sequence: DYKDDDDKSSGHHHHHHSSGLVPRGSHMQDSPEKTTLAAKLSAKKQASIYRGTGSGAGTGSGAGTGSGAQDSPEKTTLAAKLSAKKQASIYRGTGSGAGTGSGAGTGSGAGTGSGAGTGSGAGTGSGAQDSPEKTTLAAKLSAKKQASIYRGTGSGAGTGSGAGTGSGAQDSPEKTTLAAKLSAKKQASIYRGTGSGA

FJG4P [4] = target: T4, FJG4P (artificial (motif derived from human …)); experiment: EMSA; no detectable binding; EMSA: DNA annealed in 200 mM Tris pH 7.4, 100 mM KCl, 1 mM EDTA; binding 10 min at 25 C, native PAGE; smTIRFM: 100 pM tethered DNA, 100-5000 pM protein, buffer; conditions: protein: recombinant; tags: N-terminal FLAG-6xHis; label: 5' fluorescein; intramolecular G4, mixed topology
T4 chain: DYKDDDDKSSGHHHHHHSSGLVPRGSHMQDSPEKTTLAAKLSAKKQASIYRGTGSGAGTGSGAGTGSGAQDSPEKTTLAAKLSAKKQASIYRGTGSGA

G4P [5] = target: T5, G4P (artificial (RSM derived from human …)); experiment: EMSA; EMSA: DNA annealed in 200 mM Tris pH 7.4, 100 mM KCl, 1 mM EDTA; binding 10 min at 25 C, native PAGE; smTIRFM: 100 pM tethered DNA, 100-5000 pM protein, buffer; conditions: protein: recombinant, tags: N-terminal FLAG-6xHis
T5 chain: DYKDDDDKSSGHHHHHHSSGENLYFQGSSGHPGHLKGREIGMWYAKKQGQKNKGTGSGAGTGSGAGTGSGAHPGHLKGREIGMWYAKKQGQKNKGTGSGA

2G4P [6] = target: T6, 2G4P (artificial (RSM derived from human …)); experiment: as above; conditions: protein: recombinant, tags: N-terminal FLAG-6xHis
T6 chain: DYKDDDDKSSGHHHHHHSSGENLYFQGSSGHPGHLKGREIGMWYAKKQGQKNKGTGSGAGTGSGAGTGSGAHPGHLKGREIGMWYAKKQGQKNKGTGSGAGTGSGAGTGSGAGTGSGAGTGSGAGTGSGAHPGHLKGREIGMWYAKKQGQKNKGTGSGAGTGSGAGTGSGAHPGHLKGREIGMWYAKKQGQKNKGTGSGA

2FJG4P [7] = target: T7, 2FJG4P (artificial (motif derived from human …)); experiment: mass photometry; higher molecular weight complexes; EMSA: DNA annealed in 200 mM Tris pH 7.4, 100 mM KCl, 1 mM EDTA; binding 10 min at 25 C, native PAGE; smTIRFM: 100 pM tethered DNA, 100-5000 pM protein, buffer; conditions: protein: recombinant; tags: N-terminal FLAG-6xHis; G4, mixed topology
T7 chain: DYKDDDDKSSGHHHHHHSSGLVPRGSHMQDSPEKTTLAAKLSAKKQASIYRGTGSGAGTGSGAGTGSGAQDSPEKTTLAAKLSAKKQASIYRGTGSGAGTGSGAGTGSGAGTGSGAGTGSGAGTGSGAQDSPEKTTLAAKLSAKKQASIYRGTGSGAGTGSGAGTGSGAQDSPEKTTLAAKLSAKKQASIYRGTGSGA

2FJG4P [8] = target: T7, 2FJG4P; experiment: mass photometry; largest network size; EMSA: DNA annealed in 200 mM Tris pH 7.4, 100 mM KCl, 1 mM EDTA; binding 10 min at 25 C, native PAGE; smTIRFM: 100 pM tethered DNA, 100-5000 pM protein, buffer; conditions: protein: recombinant; tags: N-terminal FLAG-6xHis; two G4s, mixed topology
2G4P [9] = target: T6, 2G4P; experiment: mass photometry; higher molecular weight complexes; EMSA: DNA annealed in 200 mM Tris pH 7.4, 100 mM KCl, 1 mM EDTA; binding 10 min at 25 C, native PAGE; smTIRFM: 100 pM tethered DNA, 100-5000 pM protein, buffer; conditions: protein: recombinant; tags: N-terminal FLAG-6xHis; two G4s, mixed topology
FJG4P [10] = target: T4, FJG4P; experiment: EMSA; EMSA: DNA annealed in 200 mM Tris pH 7.4, 100 mM KCl, 1 mM EDTA; binding 10 min at 25 C, native PAGE; smTIRFM: 100 pM tethered DNA, 100-5000 pM protein, buffer; conditions: protein: recombinant; tags: N-terminal FLAG-6xHis; label: 3' 6-FAM; intramolecular parallel G4
2FJG4P [11] = target: T7, 2FJG4P; experiment: as above; conditions: protein: recombinant; tags: N-terminal FLAG-6xHis; label: 3' 6-FAM; intramolecular parallel G4
2FJG4P [12] = target: T7, 2FJG4P; experiment: smTIRFM (koff/kon); kon 4.7e9 M-1 s-1, koff 1.0 s-1; EMSA: DNA annealed in 200 mM Tris pH 7.4, 100 mM KCl, 1 mM EDTA; binding 10 min at 25 C, native PAGE; smTIRFM: 100 pM tethered DNA, 100-5000 pM protein, buffer; conditions: protein: recombinant; tags: N-terminal FLAG-6xHis; label: 3' biotin on strand 2; 18 bp duplex with 3' ssDNA tail folded as parallel G4
2G4P [13] = target: T6, 2G4P; experiment: smTIRFM (koff/kon); kon 3.9e9 M-1 s-1, koff 0.62 s-1; EMSA: DNA annealed in 200 mM Tris pH 7.4, 100 mM KCl, 1 mM EDTA; binding 10 min at 25 C, native PAGE; smTIRFM: 100 pM tethered DNA, 100-5000 pM protein, buffer; conditions: protein: recombinant; tags: N-terminal FLAG-6xHis; label: 3' biotin on strand 2; 18 bp duplex with 3' ssDNA tail folded as parallel G4
FJG4P [14] = target: T4, FJG4P; experiment: smTIRFM (koff/kon); kon 3.45e9 M-1 s-1, koff 0.94 s-1; EMSA: DNA annealed in 200 mM Tris pH 7.4, 100 mM KCl, 1 mM EDTA; binding 10 min at 25 C, native PAGE; smTIRFM: 100 pM tethered DNA, 100-5000 pM protein, buffer; conditions: protein: recombinant; tags: N-terminal FLAG-6xHis; label: 3' biotin on strand 2; 18 bp duplex with 3' ssDNA tail folded as parallel G4
G4P [15] = target: T5, G4P; experiment: smTIRFM (koff/kon); kon 2.16e9 M-1 s-1, koff 0.61 s-1; EMSA: DNA annealed in 200 mM Tris pH 7.4, 100 mM KCl, 1 mM EDTA; binding 10 min at 25 C, native PAGE; smTIRFM: 100 pM tethered DNA, 100-5000 pM protein, buffer; conditions: protein: recombinant; tags: N-terminal FLAG-6xHis; label: 3' biotin on strand 2; 18 bp duplex with 3' ssDNA tail folded as parallel G4
FJG4P [16] = target: T4, FJG4P; experiment: smTIRFM (koff/kon); kon 0.01e9 M-1 s-1, koff 0.33 s-1; EMSA: DNA annealed in 200 mM Tris pH 7.4, 100 mM KCl, 1 mM EDTA; binding 10 min at 25 C, native PAGE; smTIRFM: 100 pM tethered DNA, 100-5000 pM protein, buffer; conditions: protein: recombinant; tags: N-terminal FLAG-6xHis; label: 3' biotin on strand 2; 18 bp duplex with 3' ssDNA tail folded as G4, mixed topology
2FJG4P [17] = target: T7, 2FJG4P; experiment: smTIRFM (koff/kon); kon 0.0339e9 M-1 s-1, koff 0.4 s-1; EMSA: DNA annealed in 200 mM Tris pH 7.4, 100 mM KCl, 1 mM EDTA; binding 10 min at 25 C, native PAGE; smTIRFM: 100 pM tethered DNA, 100-5000 pM protein, buffer; conditions: protein: recombinant; tags: N-terminal FLAG-6xHis; label: 3' biotin on strand 2; 18 bp duplex with 3' ssDNA tail folded as G4, mixed topology
G4P [18] = target: T5, G4P; experiment: smTIRFM (koff/kon); kon 0.43e9 M-1 s-1, koff 0.67 s-1; EMSA: DNA annealed in 200 mM Tris pH 7.4, 100 mM KCl, 1 mM EDTA; binding 10 min at 25 C, native PAGE; smTIRFM: 100 pM tethered DNA, 100-5000 pM protein, buffer; conditions: protein: recombinant; tags: N-terminal FLAG-6xHis; label: 3' biotin on strand 2; 18 bp duplex with 3' ssDNA tail folded as G4, mixed topology
2G4P [19] = target: T6, 2G4P; experiment: smTIRFM (koff/kon); kon 0.0845e9 M-1 s-1, koff 0.29 s-1; EMSA: DNA annealed in 200 mM Tris pH 7.4, 100 mM KCl, 1 mM EDTA; binding 10 min at 25 C, native PAGE; smTIRFM: 100 pM tethered DNA, 100-5000 pM protein, buffer; conditions: protein: recombinant; tags: N-terminal FLAG-6xHis; label: 3' biotin on strand 2; 18 bp duplex with 3' ssDNA tail folded as G4, mixed topology
[20] = label: 5' fluorescein, intramolecular G4, mixed topology
[21] = label: 3' 6-FAM, intramolecular parallel G4

TGGCGACGGCAGCGAGGCTTAGGGTTAGGGTTAGGGTTTAGGGTTAGGGTTAGGGTTAGGGTTTAGGGTTAGGG / GCCTCGCTGCCGTCGCCA [2hTelG4 (smTIRFM tethering)]
Kd [1]: 14.5 nM | Kd [2]: 1.9 nM | Kd [3]: 4.6 nM

TTAGGGTTAGGGTTAGGGTTTAGGGTTAGGG (structured_DNA) [hTelG4 (EMSA)]
binding result (FJG4P [4]): no binding | Kd (G4P [5]; [20]): 558 ± 157 nM | Kd (2G4P [6]; [20]): 86.2 ± 6 nM

TTAGGGTTAGGGTTAGGGTTTAGGGTTAGGG (structured_DNA) [hTelG4 (mass photometry)]
binding result (2FJG4P [7]): binds

B1: 2hTelG4 (mass photometry) (structured_DNA)
DNA: TTAGGGTTAGGGTTAGGGTTTAGGGTTAGGGTTAGGGTTAGGGTTAGGGTTTAGGGTTAGGG
binding result (2FJG4P [8]): binds | binding result (2G4P [9]): binds

TGGGTGGGTAGGGTGGGTTT (structured_DNA) [c-MYCG4 (EMSA)]
Kd (G4P [5]; [21]): 84.1 ± 8 nM | Kd (FJG4P [10]): 110 ± 58.9 nM | Kd (2FJG4P [11]): 130 ± 63 nM | Kd (2G4P [6]; [21]): 27.7 ± 4 nM

B2: c-MYCG4 (smTIRFM tethering) (mixed)
DNA 1: TGGCGACGGCAGCGAGGCTGGGTGGGTAGGGTGGGTTT
DNA 2: GCCTCGCTGCCGTCGCCA
Kd (2FJG4P [12]): 0.2 ± 0.01 nM | Kd (2G4P [13]): 0.16 ± 0.01 nM | Kd (FJG4P [14]): 0.27 ± 0.03 nM | Kd (G4P [15]): 0.22 ± 0.02 nM

B3: hTelG4 (smTIRFM tethering) (mixed)
DNA 1: TGGCGACGGCAGCGAGGCTTAGGGTTAGGGTTAGGGTTTAGGGTTAGGG
DNA 2: GCCTCGCTGCCGTCGCCA
Kd (FJG4P [16]): 32.7 ± 4.8 nM | Kd (2FJG4P [17]): 10.7 ± 1.7 nM | Kd (G4P [18]): 1.6 ± 0.1 nM | Kd (2G4P [19]): 3.4 ± 0.3 nM
